Literature values, collected in article PMC8131754.

Biological target: SRC-2 coactivator peptide (Homo sapiens) (UniProt Q15596)
UniProt Q15596, sequence (Q15596 2-1464): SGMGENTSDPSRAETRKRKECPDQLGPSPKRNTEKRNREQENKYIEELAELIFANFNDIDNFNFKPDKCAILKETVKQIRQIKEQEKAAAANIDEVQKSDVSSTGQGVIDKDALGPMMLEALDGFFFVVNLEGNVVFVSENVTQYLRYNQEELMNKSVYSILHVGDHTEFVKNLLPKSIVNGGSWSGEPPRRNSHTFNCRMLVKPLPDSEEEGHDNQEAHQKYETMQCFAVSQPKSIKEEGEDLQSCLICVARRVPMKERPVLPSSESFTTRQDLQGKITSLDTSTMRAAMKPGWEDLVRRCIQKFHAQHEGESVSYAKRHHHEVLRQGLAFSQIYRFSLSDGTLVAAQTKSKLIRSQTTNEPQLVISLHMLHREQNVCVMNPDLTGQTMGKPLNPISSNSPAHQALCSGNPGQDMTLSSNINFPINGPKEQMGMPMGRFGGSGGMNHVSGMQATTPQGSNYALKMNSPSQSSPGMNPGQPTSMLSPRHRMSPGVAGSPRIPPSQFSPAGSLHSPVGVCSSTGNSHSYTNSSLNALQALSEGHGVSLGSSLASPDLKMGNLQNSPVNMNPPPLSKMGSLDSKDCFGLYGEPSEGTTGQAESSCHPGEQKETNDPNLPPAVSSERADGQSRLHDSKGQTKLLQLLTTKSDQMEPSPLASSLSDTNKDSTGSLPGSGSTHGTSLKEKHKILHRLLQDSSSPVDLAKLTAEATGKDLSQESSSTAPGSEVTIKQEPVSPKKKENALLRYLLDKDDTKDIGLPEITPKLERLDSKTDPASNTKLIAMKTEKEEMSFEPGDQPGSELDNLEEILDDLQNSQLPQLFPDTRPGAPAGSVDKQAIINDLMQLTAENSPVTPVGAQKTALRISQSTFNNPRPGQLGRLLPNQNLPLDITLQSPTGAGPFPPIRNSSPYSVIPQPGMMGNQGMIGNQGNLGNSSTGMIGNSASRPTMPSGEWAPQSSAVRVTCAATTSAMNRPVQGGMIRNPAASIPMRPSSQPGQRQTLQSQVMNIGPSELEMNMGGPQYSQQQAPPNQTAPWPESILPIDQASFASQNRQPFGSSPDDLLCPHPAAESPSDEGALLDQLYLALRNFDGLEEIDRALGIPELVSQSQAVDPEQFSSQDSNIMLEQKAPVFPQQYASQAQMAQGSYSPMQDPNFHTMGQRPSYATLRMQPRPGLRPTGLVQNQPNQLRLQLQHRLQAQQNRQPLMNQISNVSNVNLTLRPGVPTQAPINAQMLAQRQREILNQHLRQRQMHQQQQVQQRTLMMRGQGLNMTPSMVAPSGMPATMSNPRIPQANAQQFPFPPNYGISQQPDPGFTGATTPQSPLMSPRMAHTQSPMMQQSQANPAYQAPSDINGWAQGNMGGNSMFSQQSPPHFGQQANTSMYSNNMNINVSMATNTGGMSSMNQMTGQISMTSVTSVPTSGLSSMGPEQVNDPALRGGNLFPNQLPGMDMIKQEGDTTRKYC

Estrogen receptor α LBD (from UniProt P03372)
Kd: 175 nM
